Assay results as given in patent US20230167179A1 (CENTRE NATIONAL DE LA RECHERCHE SCIENTIFIQUE, published 2023).

What was measured:
[1] = biological target: recombinant IL-1RA (Homo sapiens (Human)) (UniProt P18510); test: Octet BLI, comparison of KD
[2] = biological target: recombinant IL-1RA (Homo sapiens (Human)) (UniProt P18510); test: Octet BLI, biotinylated antibody on streptavidin biosensor, IL-1RA at 50 nM
[3] = biological target: recombinant IL-1RA (Homo sapiens (Human)) (UniProt P18510); test: Octet BLI, biotinylated antibody on streptavidin biosensor, IL-1RA at 14.8 nM
[4] = biological target: recombinant IL-1RA (Homo sapiens (Human)) (UniProt P18510); test: Octet BLI, biotinylated antibody on streptavidin biosensor, IL-1RA at 22.2 nM
[5] = biological target: recombinant IL-1RA (Homo sapiens (Human)) (UniProt P18510); test: Octet BLI, biotinylated antibody on streptavidin biosensor, IL-1RA at 33.3 nM
[6] = biological target: recombinant IL-1RA (Homo sapiens (Human)) (UniProt P18510); test: Octet BLI, biotinylated antibody on streptavidin biosensor, IL-1RA at 9.87 nM
[7] = biological target: recombinant IL-1RA (Homo sapiens (Human)) (UniProt P18510); test: Octet BLI, biotinylated antibody on streptavidin biosensor, IL-1RA in solution, 1:1 fit
recombinant IL-1RA [8] = biological target: T1, recombinant IL-1RA (Homo sapiens (Human), UniProt P18510 26-177); test: Octet BLI, biotinylated antibody on streptavidin biosensor, IL-1RA at 2.37 nM
T1 construct: also called IL-1RA antigen; IL-RA
Protocol: (§1) This antigen was tested at 12 nM at the first point, then diluted 1.5 times on 6 points for the first 4 antibodies.

recombinant IL-1RA [9] = biological target: T1, recombinant IL-1RA; test: Octet BLI, biotinylated antibody on streptavidin biosensor, IL-1RA at 3.55 nM
Protocol: as §1

recombinant IL-1RA [10] = biological target: T1, recombinant IL-1RA; test: Octet BLI, biotinylated antibody on streptavidin biosensor, IL-1RA at 5.33 nM
Protocol: as §1

recombinant IL-1RA [11] = biological target: T1, recombinant IL-1RA; test: Octet BLI, biotinylated antibody on streptavidin biosensor, IL-1RA in solution, 1:1 fit over 4 concentrations
Protocol: as §1
For each antibody, 4 concentrations were used to calculate the KD. The constant KD is related to the rate of complex formation (described by the rate constant of association, kon) and the rate of dissociation (described by the rate constant of dissociation, kdis), with KD=kdis/kon. A high affinity interaction is characterized by a low KD, rapid recognition (high kon) and stability of the complexes formed (low kdis). The R2 makes it possible to estimate the reliability of the results obtained (the closer it is to 1, the more reliable the results).

T1 sequence (P18510 26-177): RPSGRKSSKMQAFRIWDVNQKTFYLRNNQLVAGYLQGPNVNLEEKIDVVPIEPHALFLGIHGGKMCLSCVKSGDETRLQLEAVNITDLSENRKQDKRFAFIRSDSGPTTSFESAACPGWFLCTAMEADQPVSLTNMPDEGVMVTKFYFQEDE
Chain of recombinant IL-1RA (Homo sapiens (Human)) (P18510 26-177): as above

fold lower affinity than the antibodies selected in examples 2, 3 [1] | Response [2] | Response [3] | Response [4] | Response [5] | Response [6] | Kd [7] | koff [7] | kon [7] | Response (recombinant IL-1RA [8]) | Response (recombinant IL-1RA [9]) | Response (recombinant IL-1RA [10]) | Kd (recombinant IL-1RA [11]) | koff (recombinant IL-1RA [11]) | kon (recombinant IL-1RA [11]) | Molecule
> 10 times | 0.151 | 0.0761 | 0.105 | 0.121 | 0.0638 | 50.8 nM | 0.00718 s⁻¹ | 142000 M⁻¹ s⁻¹ |  |  |  |  |  |  | anti-IL-1RA antibody MAB280 from R&D Systems
 |  |  |  |  |  |  |  |  | 0.101 | 0.154 | 0.229 | 4.86 nM | 0.000865 s⁻¹ | 178000 M⁻¹ s⁻¹ | 908.9E11B6 (antibody, IgG1, V domains shown) VH: QVQLKESGPGLVAPSQSLSITCTVSGFSLTSYGVHWVRQPPGKGLEWLGVIWAGGVTHYNSALMSRLNISKDNSQSQVFLKMNSLRTDDTAMYYCARGGALLRSHFDYWGQGTTLTVSS VL: QAVVTQESALTTSPGETVTLTCRSSTGAVTTSNYANWVQEKPDHLFTGLIGGTNNRAPGVPARFSGSLIGDKAALTITGAQTEDEAIYHCALWYSNLWVFGGRTKLTVL
 |  |  |  |  |  |  |  |  | 0.107 | 0.15 | 0.21 | 1.76 nM | 0.000464 s⁻¹ | 264000 M⁻¹ s⁻¹ | 908.10E12C1 (antibody, IgG1, V domains shown) VH: EVQLQQSGPELVKPGASVKISCKTSGYTFTEYTMHWVKQSHGKSLEWIGSINPNNGGTNYNQKFKGKATLTVDKSSNTAYMELRSLTSGDSAVYYCARTLYYAMDYWGQGTSVTVSS VL: DIVMTQSPSSLAMSVGQKVTMSCKSSQSLLNSSNQKNYLAWYQQKPRQSPKLLVYFASTRDSGVPDRFLGSGSGTDFTLTINRVQAEDLADYFCQQHYILPPTFGAGTKLELK
 |  |  |  |  |  |  |  |  | 0.092 | 0.132 | 0.2 | 3.84 nM | 0.00131 s⁻¹ | 342000 M⁻¹ s⁻¹ | 908.9G5B9 (antibody, V domains shown, Biotinylated in the Octet assay; fixed (capture) antibody in the sandwich ELISAs) VH: EVQLQQSGAELVKPGASVKLSCTVSGFNITDTYIHWVKQRPEKGLEWIGRIDPANGNTKYDPKLQGKATITADTSSNTAYLQLSSLTSEDTAVYYCARDGTYVYYAMDYWGQGTSVTVSS VL: DIQMTQSPASLSASVGETVTITCRASENIFIYLAWYQQKQGKSPQLLVYNAKTLAEGVPSRFSGSGSGTQFSLKINSLLPEDFGSYYCQHHYGIPFTFGSGTKLEIE
